Results: article doi:10.1101/2021.12.14.472590 (bioRxiv, 2021)

Target: human β-actin (recombinant G-actin) (human, UniProt P60709 1-375)
Assay: NMR titration

B1: ADAP1-381 (N-terminal intrinsically disordered fragment of ADAP) (domain or fragment)
chain: MAKYNTGGNPTEDVSVNSRPFRVTGPNSSSGIQARKNLFNNQGNASPPAGPSNVPKFGSPKPPVAVKPSSEEKPDKEPKPPFLKPTGAGQRFGTPASLTTRDPEAKVGFLKPVGPKPINLPKEDSKPTFPWPPGNKPSLHSVNQDHDLKPLGPKSGPTPPTSENEQKQAFPKLTGVKGKFMSASQDLEPKPLFPKPAFGQKPPLSTENSHEDESPMKNVSSSKGSPAPLGVRSKSGPLKPAREDSENKDHAGEISSLPFPGVVLKPAASRGGPGLSKNGEEKKEDRKIDAAKNTFQSKINQEELASGTPPARFPKAPSKLTVGGPWGQSQEKEKGDKNSATPKQKPLPPLFTLGPPPPKPNRPPNVDLTKFHKTSSGNSTS
binding result: binds
